Experimental data: publication PMC9824680

Substrate: O=[N+]([O-])c1ccc(O[C@@H]2O[C@H](CO)[C@@H](O)[C@H](O)[C@H]2O)cc1
Assay: purified protein
Settings: free enzyme, 100 mM citrate phosphate pH 6.5, 50 °C, pNPG 0.05–25 mM

B1: β-Glucosidase from Thermotoga maritima (bgl) (Thermotoga maritima MSB8) (protein)
chain: MNVKKFPEGFLWGVATASYQIEGSPLADGAGMSIWHTFSHTPGNVKNGDTGDVACDHYNRWKEDIEIIEKLGVKAYRFSISWPRILPEGTGRVNQKGLDFYNRIIDTLLEKGITPFVTIYHWDLPFALQLKGGWANREIADWFAEYSRVLFENFGDRVKNWITLNEPWVVAIVGHLYGVHAPGMRDIYVAFRAVHNLLRAHARAVKVFRETVKDGKIGIVFNNGYFEPASEKEEDIRAVRFMHQFNNYPLFLNPIYRGDYPELVLEFAREYLPENYKDDMSEIQEKIDFVGLNYYSGHLVKFDPDAPAKVSFVERDLPKTAMGWEIVPEGIYWILKKVKEEYNPPEVYITENGAAFDDVVSEDGRVHDQNRIDYLKAHIGQAWKAIQEGVPLKGYFVWSLLDNFEWAEGYSKRFGIVYVDYSTQKRIVKDSGYWYSNVVKNNGLED
  Km: 0.22 ± 0.08 mM
  Vmax: 7.27 µM/min
